Laboratory results reported in IntAct's records for PubMed 32172343.

B1: Phospholipid-transporting ATPase VB (Homo sapiens), O94823-1 (parent)
chain: MALSVDSSWHRWQWRVRDGFPHCPSETTPLLSPEKGRQSYNLTQQRVVFPNNSIFHQDWEEVSRRYPGNRTCTTKYTLFTFLPRNLFEQFHRWANLYFLFLVILNWMPSMEVFHREITMLPLAIVLFVIMIKDGMEDFKRHRFDKAINCSNIRIYERKEQTYVQKCWKDVRVGDFIQMKCNEIVPADILLLFSSDPNGICHLETASLDGETNLKQRCVVKGFSQQEVQFEPELFHNTIVCEKPNNHLNKFKGYMEHPDQTRTGFGCESLLLRGCTIRNTEMAVGIVIYAGHETKAMLNNSGPRYKRSKIERRMNIDIFFCIGILILMCLIGAVGHSIWNGTFEEHPPFDVPDANGSFLPSALGGFYMFLTMIILLQVLIPISLYVSIELVKLGQVFFLSNDLDLYDEETDLSIQCRALNIAEDLGQIQYIFSDKTGTLTENKMVFRRCTIMGSEYSHQENAKRLETPKELDSDGEEWTQYQCLSFSARWAQDPATMRSQKGAQPLRRSQSARVPIQGHYRQRSMGHRESSQPPVAFSSSIEKDVTPDKNLLTKVRDAALWLETLSDSRPAKASLSTTSSIADFFLALTICNSVMVSTTTEPRQRVTIKPSSKALGTSLEKIQQLFQKLKLLSLSQSFSSTAPSDTDLGESLGANVATTDSDERDDASVCSGGDSTDDGGYRSSMWDQGDILESGSGTSLEEALEAPATDLARPEFCYEAESPDEAALVHAAHAYSFTLVSRTPEQVTVRLPQGTCLTFSLLCTLGFDSVRKRMSVVVRHPLTGEIVVYTKGADSVIMDLLEDPACVPDINMEKKLRKIRARTQKHLDLYARDGLRTLCIAKKVVSEEDFRRWASFRREAEASLDNRDELLMETAQHLENQLTLLGATGIEDRLQEGVPDTIATLREAGIQLWVLTGDKQETAVNIAHSCRLLNQTDTVYTINTENQETCESILNCALEELKQFRELQKPDRKLFGFRLPSKTPSITSEAVVPEAGLVIDGKTLNAIFQGKLEKKFLELTQYCRSVLCCRSTPLQKSMIVKLVRDKLRVMTLSIGDGANDVSMIQAADIGIGISGQEGMQAVMSSDFAITRFKHLKKLLLVHGHWCYSRLARMVVYYLYKNVCYVNLLFWYQFFCGFSSSTMIDYWQMIFFNLFFTSLPPLVFGVLDKDISAETLLALPELYKSGQNSECYNLSTFWISMVDAFYQSLICFFIPYLAYKGSDIDVFTFGTPINTISLTTILLHQAMEMKTWTIFHGVVLLGSFLMYFLVSLLYNATCVICNSPTNPYWVMEGQLSNPTFYLVCFLTPVVALLPRYFFLSLQGTCGKSLISKAQKIDKLPPDKRNLEIQSWRSRQRPAPVPEVARPTHHPVSSITGQDFSASTPKSSNPPKRKHVEESVLHEQRCGTECMRDDSCSGDSSAQLSSGEHLLGPNRIMAYSRGQTDMCRCSKRSSHRRSQSSLTI
partner: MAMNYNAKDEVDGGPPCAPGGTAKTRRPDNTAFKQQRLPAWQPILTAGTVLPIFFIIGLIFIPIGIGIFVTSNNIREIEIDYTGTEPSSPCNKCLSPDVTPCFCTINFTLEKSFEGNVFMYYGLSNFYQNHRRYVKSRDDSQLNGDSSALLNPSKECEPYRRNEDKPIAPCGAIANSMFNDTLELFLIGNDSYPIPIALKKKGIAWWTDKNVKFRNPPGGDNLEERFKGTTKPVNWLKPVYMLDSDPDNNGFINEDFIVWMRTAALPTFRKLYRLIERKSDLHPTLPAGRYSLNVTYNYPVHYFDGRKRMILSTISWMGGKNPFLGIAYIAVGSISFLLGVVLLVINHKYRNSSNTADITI

Variants of: B1
Settings: with TMEM30A

Variant	effect of a mutation on the interaction
E210A	with no effect
G671R;N865K	with no effect
V48L	with no effect

Further lines, results first:

effect of a mutation on the interaction	Variant
with no effect	E993A
with no effect	I1038T
